Article PMC12596195, “Mei5–Sae3 stabilizes both active and inactive forms of Dmc1 filaments independently of its impact on ATP hydrolysis” (Nucleic Acids Research, 2025)
Positions count from the first letter of the chain named. Values joined by “and” are separate entries in the source; they are usually repeats but may differ in a detail not shown here. Identical values can stand only once.

Legend:
ScDmc1 (Dmc1–WT) = biological target: T1, ScDmc1 (Dmc1–WT) (Saccharomyces cerevisiae, UniProt P25453); test: nitrocellulose filter binding; conditions: 3 µM Dmc1, 90 nt ssDNA (6 µM nt), 5 mM Mg2+, 70 µM Ca2+, pH 7.5, 30°C; labelled compound (alpha-32P); read-out: KD (apparent)
T1 construct: N-terminal 6x-His tag (kept), expressed in E. coli; nucleoprotein filament on 90 nt ssDNA
T1 sequence (P25453 1-334): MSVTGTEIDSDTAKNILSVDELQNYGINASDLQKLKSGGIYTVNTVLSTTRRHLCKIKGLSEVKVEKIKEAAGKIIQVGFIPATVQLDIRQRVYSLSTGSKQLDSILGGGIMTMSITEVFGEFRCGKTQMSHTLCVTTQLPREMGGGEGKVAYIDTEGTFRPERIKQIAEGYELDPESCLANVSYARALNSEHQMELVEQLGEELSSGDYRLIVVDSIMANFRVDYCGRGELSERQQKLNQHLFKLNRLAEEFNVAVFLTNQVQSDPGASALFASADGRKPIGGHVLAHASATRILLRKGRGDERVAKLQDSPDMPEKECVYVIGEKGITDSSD
From the text: nitrocellulose filter binding on ScDmc1 (Dmc1–WT) | Dmc1–WT binds ATP with the same apparent affinity in the presence and absence of Mei5–Sae3

ScDmc1 = biological target: T2, ScDmc1 (Saccharomyces cerevisiae, UniProt P25453, E157D); test: nitrocellulose filter binding; conditions: 3 µM Dmc1, 90 nt ssDNA (6 µM nt), 5 mM Mg2+, 70 µM Ca2+, pH 7.5, 30°C; labelled compound (alpha-32P)
T2 construct: gene DMC1; N-terminal 6x-His tag (kept), expressed in E. coli; nucleoprotein filament on 90 nt ssDNA
T2 sequence (P25453 1-334 E157D): T1 sequence (P25453 1-334) with E157D

[1] = biological target: T3, ScDmc1 (Saccharomyces cerevisiae Dmc1, wild type) (Saccharomyces cerevisiae) (UniProt P25453)
T3 sequence: T1 sequence (P25453 1-334)

[2] = biological target: T3, ScDmc1 (Saccharomyces cerevisiae Dmc1, wild type) (Saccharomyces cerevisiae); remark: listed apart in the source
[3] = biological target: T3, ScDmc1 (Saccharomyces cerevisiae Dmc1, wild type) (Saccharomyces cerevisiae); remark: listed apart in the source
[4] = biological target: T3, ScDmc1 (Saccharomyces cerevisiae Dmc1, wild type) (Saccharomyces cerevisiae); remark: listed apart in the source
[5] = biological target: T3, ScDmc1 (Saccharomyces cerevisiae Dmc1, wild type) (Saccharomyces cerevisiae); remark: listed apart in the source
[6] = biological target: T3, ScDmc1 (Saccharomyces cerevisiae Dmc1, wild type) (Saccharomyces cerevisiae); remark: listed apart in the source
Dmc1-WT [7] = biological target: T4, Dmc1-WT (Saccharomyces cerevisiae, UniProt P25453 1-334); test: fluorescence polarization; ATP, 70 uM Ca2+; FP: 25 mM HEPES pH 7.5, 1 mM Mg2+, 1 mM ATP, 1 mM DTT, 50 mM NaCl (100 mM in Fig. 3), 100 ug/ml BSA, 0.02% NP-40, 70 uM Ca2+ or as indicated, 3 nM 84-nt ssDNA; conditions: protein: recombinant; tags: N-terminal 6xHis; label: 5' Alexa Fluor 488
T4 sequence: T1 sequence (P25453 1-334)

Dmc1-WT;Mei5-Sae3 [8] = biological target: T5, Dmc1-WT;Mei5-Sae3 (Saccharomyces cerevisiae;Saccharomyces …, UniProt P25453;P32489;P89114 1-334;1-222;1-91, |); test: fluorescence polarization; ADP, 400 nM Mei5-Sae3; FP: 25 mM HEPES pH 7.5, 1 mM Mg2+, 1 mM ATP, 1 mM DTT, 50 mM NaCl (100 mM in Fig. 3), 100 ug/ml BSA, 0.02% NP-40, 70 uM Ca2+ or as indicated, 3 nM 84-nt ssDNA; conditions: protein: recombinant;recombinant; tags: N-terminal 6xHis;N-terminal 6xHis on Mei5; label: 5' Alexa Fluor 488
T5 sequence 1: T1 sequence (P25453 1-334)
T5 sequence 2: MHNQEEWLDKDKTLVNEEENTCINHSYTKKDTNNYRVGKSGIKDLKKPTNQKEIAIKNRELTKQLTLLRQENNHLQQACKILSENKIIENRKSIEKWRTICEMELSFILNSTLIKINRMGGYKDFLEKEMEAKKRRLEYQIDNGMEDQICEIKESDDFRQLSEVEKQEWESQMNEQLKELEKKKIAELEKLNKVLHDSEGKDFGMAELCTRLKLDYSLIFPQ
T5 sequence 3: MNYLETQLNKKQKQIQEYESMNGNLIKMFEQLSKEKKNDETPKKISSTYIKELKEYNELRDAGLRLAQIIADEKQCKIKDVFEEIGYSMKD

Mei5-Sae3 = biological target: T6, Mei5-Sae3 (Saccharomyces cerevisiae, UniProt P32489;P89114 1-222;1-91); test: fluorescence polarization; titration; very low signal at 400 nM; FP: 25 mM HEPES pH 7.5, 1 mM Mg2+, 1 mM ATP, 1 mM DTT, 50 mM NaCl (100 mM in Fig. 3), 100 ug/ml BSA, 0.02% NP-40, 70 uM Ca2+ or as indicated, 3 nM 84-nt ssDNA; conditions: protein: recombinant; tags: N-terminal 6xHis on Mei5; copies: 1;1; label: 5' Alexa Fluor 488
T6 sequence 1: T5 sequence 2
T6 sequence 2: T5 sequence 3

Dmc1-WT [9] = biological target: T4, Dmc1-WT; test: fluorescence polarization; ATP, 250 uM Ca2+; FP: 25 mM HEPES pH 7.5, 1 mM Mg2+, 1 mM ATP, 1 mM DTT, 50 mM NaCl (100 mM in Fig. 3), 100 ug/ml BSA, 0.02% NP-40, 70 uM Ca2+ or as indicated, 3 nM 84-nt ssDNA; conditions: protein: recombinant; tags: N-terminal 6xHis; label: 5' Alexa Fluor 488
Dmc1-E157D = biological target: T7, Dmc1-E157D (Saccharomyces cerevisiae, UniProt P25453 1-334, E157D); test: fluorescence polarization; ATP, 70 uM Ca2+, 50 mM NaCl, 30 C; comparable to WT; FP: 25 mM HEPES pH 7.5, 1 mM Mg2+, 1 mM ATP, 1 mM DTT, 50 mM NaCl (100 mM in Fig. 3), 100 ug/ml BSA, 0.02% NP-40, 70 uM Ca2+ or as indicated, 3 nM 84-nt ssDNA; conditions: protein: recombinant; tags: N-terminal 6xHis; label: 5' Alexa Fluor 488
T7 sequence: T1 sequence (P25453 1-334) with E157D

Dmc1-WT [10] = biological target: T4, Dmc1-WT; test: fluorescence polarization; ATP, 0 Ca2+; FP: 25 mM HEPES pH 7.5, 1 mM Mg2+, 1 mM ATP, 1 mM DTT, 50 mM NaCl (100 mM in Fig. 3), 100 ug/ml BSA, 0.02% NP-40, 70 uM Ca2+ or as indicated, 3 nM 84-nt ssDNA; conditions: protein: recombinant; tags: N-terminal 6xHis; label: 5' Alexa Fluor 488
RecA;Mei5-Sae3 = RecA;Mei5-Sae3 (Escherichia coli;Saccharomyces …, UniProt P0A7G6;P32489;P89114 1-353;1-222;1-91, |); test: fluorescence polarization; 400 nM Mei5-Sae3: no impact on Kd; FP: 25 mM HEPES pH 7.5, 1 mM Mg2+, 1 mM ATP, 1 mM DTT, 50 mM NaCl (100 mM in Fig. 3), 100 ug/ml BSA, 0.02% NP-40, 70 uM Ca2+ or as indicated, 3 nM 84-nt ssDNA; conditions: protein: ;recombinant; tags: ;N-terminal 6xHis on Mei5; label: 5' Alexa Fluor 488
Dmc1-WT [11] = biological target: T4, Dmc1-WT; test: fluorescence polarization; ATP, 1 mM Ca2+; FP: 25 mM HEPES pH 7.5, 1 mM Mg2+, 1 mM ATP, 1 mM DTT, 50 mM NaCl (100 mM in Fig. 3), 100 ug/ml BSA, 0.02% NP-40, 70 uM Ca2+ or as indicated, 3 nM 84-nt ssDNA; conditions: protein: recombinant; tags: N-terminal 6xHis; label: 5' Alexa Fluor 488
RecA = RecA (Escherichia coli, UniProt P0A7G6 1-353); test: fluorescence polarization; 100 mM NaCl (90% of binding remains); FP: 25 mM HEPES pH 7.5, 1 mM Mg2+, 1 mM ATP, 1 mM DTT, 50 mM NaCl (100 mM in Fig. 3), 100 ug/ml BSA, 0.02% NP-40, 70 uM Ca2+ or as indicated, 3 nM 84-nt ssDNA; conditions: label: 5' Alexa Fluor 488
hRad51 [12] = biological target: T8, hRad51 (Homo sapiens, UniProt Q06609 1-339); test: fluorescence polarization; ADP; FP: 25 mM HEPES pH 7.5, 1 mM Mg2+, 1 mM ATP, 1 mM DTT, 50 mM NaCl (100 mM in Fig. 3), 100 ug/ml BSA, 0.02% NP-40, 70 uM Ca2+ or as indicated, 3 nM 84-nt ssDNA; conditions: chain copies: 28; label: 5' Alexa Fluor 488
hRad51 [13] = biological target: T8, hRad51; test: fluorescence polarization; ATP; FP: 25 mM HEPES pH 7.5, 1 mM Mg2+, 1 mM ATP, 1 mM DTT, 50 mM NaCl (100 mM in Fig. 3), 100 ug/ml BSA, 0.02% NP-40, 70 uM Ca2+ or as indicated, 3 nM 84-nt ssDNA; conditions: chain copies: 28; label: 5' Alexa Fluor 488
Dmc1-WT;Mei5-Sae3 [14] = biological target: T5, Dmc1-WT;Mei5-Sae3; test: fluorescence polarization; ATP, 70 uM Ca2+, Mei5-Sae3 (400 nM, no own signal); FP: 25 mM HEPES pH 7.5, 1 mM Mg2+, 1 mM ATP, 1 mM DTT, 50 mM NaCl (100 mM in Fig. 3), 100 ug/ml BSA, 0.02% NP-40, 70 uM Ca2+ or as indicated, 3 nM 84-nt ssDNA; conditions: protein: recombinant;recombinant; tags: N-terminal 6xHis;N-terminal 6xHis on Mei5; label: 5' Alexa Fluor 488
Dmc1-WT;Mei5-Sae3 [15] = biological target: T5, Dmc1-WT;Mei5-Sae3; test: fluorescence polarization; AMP-PNP, 400 nM Mei5-Sae3; FP: 25 mM HEPES pH 7.5, 1 mM Mg2+, 1 mM ATP, 1 mM DTT, 50 mM NaCl (100 mM in Fig. 3), 100 ug/ml BSA, 0.02% NP-40, 70 uM Ca2+ or as indicated, 3 nM 84-nt ssDNA; conditions: protein: recombinant;recombinant; tags: N-terminal 6xHis;N-terminal 6xHis on Mei5; label: 5' Alexa Fluor 488

T8 sequence (Q06609 whole entry): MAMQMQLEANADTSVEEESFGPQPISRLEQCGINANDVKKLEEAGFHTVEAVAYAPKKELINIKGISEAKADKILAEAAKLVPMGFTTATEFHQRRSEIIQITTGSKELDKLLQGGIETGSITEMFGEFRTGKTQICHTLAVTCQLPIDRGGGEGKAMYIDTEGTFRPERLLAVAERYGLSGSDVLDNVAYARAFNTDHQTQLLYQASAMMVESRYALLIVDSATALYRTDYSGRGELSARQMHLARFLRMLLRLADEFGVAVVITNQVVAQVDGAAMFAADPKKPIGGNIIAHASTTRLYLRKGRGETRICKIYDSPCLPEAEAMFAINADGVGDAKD
Chain of RecA;Mei5-Sae3 (P0A7G6 whole entry, one chain of several): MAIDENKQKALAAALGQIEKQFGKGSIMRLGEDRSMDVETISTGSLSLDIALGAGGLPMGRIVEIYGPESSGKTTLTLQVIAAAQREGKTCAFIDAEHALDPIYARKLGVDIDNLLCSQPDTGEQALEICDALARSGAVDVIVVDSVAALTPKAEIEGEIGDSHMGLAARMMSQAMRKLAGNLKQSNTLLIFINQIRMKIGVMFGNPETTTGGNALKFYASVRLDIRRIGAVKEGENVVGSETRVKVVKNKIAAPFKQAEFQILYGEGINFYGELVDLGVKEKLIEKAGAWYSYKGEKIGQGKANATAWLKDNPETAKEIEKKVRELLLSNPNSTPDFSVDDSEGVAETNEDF
Chain of RecA (P0A7G6 whole entry): as the sequence (P0A7G6 whole entry, one chain of several) above

Nc1ncnc2c1ncn2[C@@H]1O[C@H](COP(=O)(O)OP(=O)(O)OP(=O)(O)O)[C@@H](O)[C@H]1O [ATP]
Kd (ScDmc1 (Dmc1–WT)): 5000 to 6000 nM
nitrocellulose filter binding (ScDmc1): ATP binding activity of Dmc1–E157D and found it was significantly reduced

B1: ScMei5–Sae3 heterodimer (complex)
chain 1: T5 sequence 2
chain 2: T5 sequence 3
negative-stain EM: average Dmc1 filament length with versus without Mei5–Sae3, ADP as cofactor (compressed filaments) [1]: 2.3 fold
negative-stain EM: average Dmc1 filament length with versus without Mei5–Sae3, AMP–PNP as cofactor [1]: 1.5 fold
3H-ADP retained on Dmc1 filaments (nitrocellulose filter) after adding 0.5, 1 or 2 µM Mei5–Sae3; value at 2 µM [2]: 65%
ssDNA-dependent ATP hydrolysis by Dmc1 (TLC), with versus without Mei5–Sae3, 70 µM Ca2+ [3]: 2 fold
D-loop yield with versus without 0.5 µM Mei5–Sae3 (3 µM Dmc1, 0.2 µM RPA, 70 µM Ca2+, 5 mM Mg2+, ATP) [4]: 2.5 fold
negative-stain EM: average Dmc1 filament length with 2 µM Mei5–Sae3 against the control without it (ATP, 70 µM Ca2+, RPA) [5]: 1.5 fold
negative-stain EM: share of Dmc1 filaments in the extended (active) form with 2 µM Mei5–Sae3 (ATP, 70 µM Ca2+, RPA; 17% without Mei5–Sae3) [5]: 76%
apparent KD of Dmc1 for ssDNA by fluorescence polarisation, fold reduction by 400 nM Mei5–Sae3 (ADP in place of ATP) [6]: 1.5 fold
apparent KD of Dmc1 for ssDNA by fluorescence polarisation, fold reduction by 400 nM Mei5–Sae3 (AMP–PNP in place of ATP) [6]: 1.5 fold
apparent KD of Dmc1 for ssDNA by fluorescence polarisation, fold reduction by 400 nM Mei5–Sae3 (ATP, 70 µM Ca2+, 100 mM NaCl) [6]: 2 fold

B2: 84 nt-ssDNA (ssDNA)
DNA: GGTAGCGGTTGGGTGAGTGGTGGGGAGGGTCGGGAGGTGGCGTAGAAACATGATAGGAATGTGAATGAATGAAGTACAAGTAAA
Kd (Dmc1-WT [7]): 966 nM and 933 nM
fold decrease in Kd vs Dmc1 alone (Dmc1-WT;Mei5-Sae3 [8]): ~1.5 fold lower Kd than Dmc1 alone
binding result (Mei5-Sae3): binds
Kd (Dmc1-WT [9]): 472 nM and 508 nM
binding result (Dmc1-E157D): binds
Kd (Dmc1-WT [10]): 1340 ± 113 nM
binding result (RecA;Mei5-Sae3): binds
Kd (Dmc1-WT [11]): 164 ± 13 nM
binding result (RecA): binds
Kd (hRad51 [12]): 476 ± 20 nM
Kd (hRad51 [13]): 342 ± 10 nM
Kd (Dmc1-WT;Mei5-Sae3 [14]): 512 ± 25 nM
fold decrease in Kd (Dmc1-WT;Mei5-Sae3 [15]): ~1.5 fold lower Kd than Dmc1 alone
